According to article PMC8129110:

These substances were tested against Sla2 ANTH domain (S. cerevisiae), wild type (assay: DLS). Conditions: complexes assembled in the presence of PIP2; parent: est. 100; read off a plot.
Work on “Ent1 ENTH domain (S. cerevisiae), wild type (from UniProt Q12518) Y100R” yielded a response of 37 % mass.
“Ent1 ENTH domain (S. cerevisiae), wild type (from UniProt Q12518) E54A; D57A; D60A” showed a response of 100 % mass.
With “Ent1 ENTH domain (S. cerevisiae), wild type (from UniProt Q12518) E107A” the response was 75 % mass.

The substances below were run against Ent1 ENTH domain (S. cerevisiae), wild type (UniProt Q12518) (assay: DLS). Conditions: complexes assembled in the presence of PIP2; parent: est. 100; read off a plot.
UniProt Q12518, sequence (Q12518 whole entry, looked up, the tested form may be a part): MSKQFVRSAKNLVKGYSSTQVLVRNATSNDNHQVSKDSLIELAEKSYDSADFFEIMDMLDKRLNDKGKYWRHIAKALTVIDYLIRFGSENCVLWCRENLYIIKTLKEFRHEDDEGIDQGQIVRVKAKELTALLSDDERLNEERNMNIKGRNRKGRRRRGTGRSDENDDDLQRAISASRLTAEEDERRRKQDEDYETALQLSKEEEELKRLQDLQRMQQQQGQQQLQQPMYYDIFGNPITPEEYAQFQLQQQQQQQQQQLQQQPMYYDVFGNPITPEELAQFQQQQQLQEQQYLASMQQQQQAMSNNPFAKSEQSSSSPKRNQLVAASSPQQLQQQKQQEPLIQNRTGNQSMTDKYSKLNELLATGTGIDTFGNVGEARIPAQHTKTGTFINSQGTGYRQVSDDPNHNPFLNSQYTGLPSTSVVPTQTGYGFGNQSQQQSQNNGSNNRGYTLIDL
Work on “Sla2 ANTH domain (S. cerevisiae), wild type R3A” yielded a response of 21 % mass.
“Sla2 ANTH domain (S. cerevisiae), wild type K10A; K13A; K14A” gave a response of 28 % mass.
“Sla2 ANTH domain (S. cerevisiae), wild type R29A” gave a response of 27 % mass.
Substance “Sla2 ANTH domain (S. cerevisiae), wild type R3A; I4A; D37R” has a response of 100 % mass.
For “Sla2 ANTH domain (S. cerevisiae), wild type R25A”, the response was 32 % mass.
“Sla2 ANTH domain (S. cerevisiae), wild type Q9A; K10A” gave a response of 100 % mass.
